One experiment has as its target HLA-B*15:01. The experiment can be described thus: IEDB peptide-MHC binding, purified MHC/direct/fluorescence; filed as Kd, often an IC50 or EC50 that approximates it; ≥ and ≤ were set here for values at or beyond the usual limits of such assays. To be noted: source organism: Giardia lamblia ATCC 50803.
Experiment [1] addresses HLA-A*11:01. Described as above. To be noted: source organism: Giardia lamblia ATCC 50803.
The target in the next experiment is HLA-B*27:05. The experiment is described as above. To be noted: source organism: Giardia lamblia ATCC 50803.
A further experiment concerns the target HLA-B*46:01. The experiment is described as above. To be noted: source organism: Giardia lamblia ATCC 50803.
For another experiment, the target named is HLA-A*69:01. The experiment is described as above. Conditions: source organism: Giardia lamblia ATCC 50803.
Another experiment concerns the target HLA-B*15:17. The experiment is described as above. Conditions: source organism: Giardia lamblia ATCC 50803.
Another experiment has as its target HLA-A*30:01. The experiment is described as above. To be noted: source organism: Giardia lamblia ATCC 50803.
A further experiment addresses HLA-B*57:01. Described as above. To be noted: source organism: Giardia lamblia ATCC 50803.
For experiment [2], the target named is HLA-A*01:01. Described as above. Conditions: source organism: Giardia lamblia ATCC 50803.
The target of experiment [3] is HLA-A*31:01. The description is as above. To be noted: source organism: Giardia lamblia ATCC 50803.
The target in experiment [4] is HLA-A*02:01. The description is as above. To be noted: source organism: Giardia lamblia ATCC 50803.
The target in experiment [5] is HLA-B*51:01. The description is as above. To be noted: source organism: Giardia lamblia ATCC 50803.
For experiment [6], the target named is HLA-B*48:01. The experiment is described as above. To be noted: source organism: Giardia lamblia ATCC 50803.
A further experiment concerns the target HLA-B*40:01. Described as above. Conditions: source organism: Giardia lamblia ATCC 50803.
Experiment [7] addresses HLA-B*07:02. The description is as above. To be noted: source organism: Giardia lamblia ATCC 50803.
For a further experiment, the target named is HLA-C*03:03. The description is as above. To be noted: source organism: Giardia lamblia ATCC 50803.
For experiment [8], the target named is HLA-B*58:01. The experiment is described as above. To be noted: source organism: Giardia lamblia ATCC 50803.
For experiment [9], the target named is HLA-B*18:01. The description is as above. To be noted: source organism: Giardia lamblia ATCC 50803.
For experiment [10], the target named is HLA-A*03:01. Described as above. To be noted: source organism: Giardia lamblia ATCC 50803.
Another experiment addresses HLA-B*15:09. The experiment can be described thus: IEDB peptide-MHC binding, purified MHC/competitive/fluorescence; filed as Kd, often an IC50 or EC50 that approximates it; ≥ and ≤ were set here for values at or beyond the usual limits of such assays. To be noted: source organism: Giardia lamblia ATCC 50803.
For another experiment, the target named is HLA-B*44:03. The experiment can be described thus: IEDB peptide-MHC binding, purified MHC/competitive/fluorescence; ≥ and ≤ were set here for values at or beyond the usual limits of such assays. To be noted: source organism: Homo sapiens.
The target in experiment [11] is HLA-A*11:01. The description is as above. Conditions: source organism: Homo sapiens.
The next experiment deals with HLA-A*68:02. The experiment is described as above. To be noted: source organism: Homo sapiens.
A further experiment has as its target HLA-A*29:02. Described as above. To be noted: source organism: Homo sapiens.
Another experiment addresses HLA-B*37:01. The experiment is described as above. To be noted: source organism: Homo sapiens.
The target in another experiment is HLA-B*53:01. The description is as above. Conditions: source organism: Homo sapiens.
The target in experiment [12] is HLA-A*01:01. The description is as above. To be noted: source organism: Homo sapiens.
In a further experiment the target is HLA-B*40:02. Described as above. Conditions: source organism: Homo sapiens.
The target in a further experiment is HLA-A*25:01. Described as above. To be noted: source organism: Homo sapiens.
Experiment [13] concerns the target HLA-A*31:01. Described as above. To be noted: source organism: Homo sapiens.
In experiment [14] the target is HLA-A*02:01. Described as above. To be noted: source organism: Homo sapiens.
Experiment [15] concerns the target HLA-B*51:01. Described as above. Conditions: source organism: Homo sapiens.
The target of experiment [16] is HLA-B*07:02. The description is as above. To be noted: source organism: Homo sapiens.
Another experiment deals with HLA-A*24:02. Described as above. To be noted: source organism: Homo sapiens.
The next experiment concerns the target HLA-B*35:01. The experiment is described as above. To be noted: source organism: Homo sapiens.
Another experiment concerns the target HLA-B*08:01. The description is as above. Conditions: source organism: Homo sapiens.
Experiment [17] has as its target HLA-B*58:01. The experiment is described as above. Conditions: source organism: Homo sapiens.
Another experiment has as its target HLA-B*14:02. The experiment is described as above. To be noted: source organism: Homo sapiens.
Experiment [18] addresses HLA-B*18:01. The experiment is described as above. To be noted: source organism: Homo sapiens.
Experiment [19] has as its target HLA-A*03:01. Described as above. Conditions: source organism: Homo sapiens.
The target of experiment [20] is HLA-B*48:01. The experiment can be described thus: IEDB peptide-MHC binding, purified MHC/competitive/fluorescence; filed as Kd, often an IC50 or EC50 that approximates it; ≥ and ≤ were set here for values at or beyond the usual limits of such assays. To be noted: source organism: Toxoplasma gondii RH.

pIC50, pKd: −log10 of the molar value.

One may read the pKd as −log10 of the Kd, conventionally taken in molar units. Turning to VAAKGAPAL, the pKd with HLA-B*15:01 was ≤ 4.70; with HLA-A*11:01 [1], ≤ 4.70; with HLA-B*27:05, ≤ 4.70; with HLA-B*46:01 it was ≤ 4.70; with HLA-A*69:01, 7.17; in the experiment with HLA-B*15:17, 8.15. Moreover, the pKd in the experiment with HLA-A*30:01, with HLA-B*57:01, with HLA-A*01:01 [2], with HLA-A*31:01 [3], with HLA-A*02:01 [4] and with HLA-B*51:01 [5] was ≤ 4.70 throughout. Also, the pKd with HLA-B*48:01 [6] was 5.25; in the experiment with HLA-B*40:01 it was ≤ 4.70; in the experiment with HLA-B*07:02 [7], 6.55; in the experiment with HLA-C*03:03 it was 8.52; in the experiment with HLA-B*58:01 [8], 6.02; with HLA-B*18:01 [9] it was ≤ 4.70. The pKd with HLA-A*03:01 [10] and with HLA-B*15:09 was ≤ 4.70 in each case.
As usually defined, the pIC50 is the negative decadic logarithm of the IC50, by convention in mol/L. The low end stands for a large IC50, the high end for a small IC50. Turning to RQSSGSSSSGF, the pIC50 was ≤ 4.70 with HLA-B*44:03; ≤ 4.70 in the experiment with HLA-A*11:01 [11]; ≤ 4.70 with HLA-A*68:02; ≤ 4.70 with HLA-A*29:02; 6.50 with HLA-B*37:01; ≤ 4.70 in the experiment with HLA-B*53:01. The pIC50 was ≤ 4.70 in the experiment with HLA-A*01:01 [12]; 5.69 with HLA-B*40:02; ≤ 4.70 with HLA-A*25:01; ≤ 4.70 with HLA-A*31:01 [13]; ≤ 4.70 in the experiment with HLA-A*02:01 [14]; ≤ 4.70 with HLA-B*51:01 [15]. Further, the pIC50 with HLA-B*07:02 [16], with HLA-A*24:02, with HLA-B*35:01, with HLA-B*08:01, with HLA-B*58:01 [17] and with HLA-B*14:02 was ≤ 4.70 throughout. Moreover, the pIC50 with HLA-B*18:01 [18] and with HLA-A*03:01 [19] was ≤ 4.70 throughout.
As for ELFARSSDPR, the pIC50 with HLA-B*44:03 is ≤ 4.70; in the experiment with HLA-A*11:01 [11], ≤ 4.70; with HLA-A*68:02 it was 5.25; with HLA-A*29:02, ≤ 4.70; in the experiment with HLA-B*37:01, ≤ 4.70; with HLA-B*53:01, ≤ 4.70. For the same sequence, the pIC50 in the experiment with HLA-A*01:01 [12] is ≤ 4.70; with HLA-B*40:02, ≤ 4.70; with HLA-A*25:01 it was ≤ 4.70; in the experiment with HLA-A*31:01 [13], 4.81; with HLA-A*02:01 [14] it was ≤ 4.70; with HLA-B*51:01 [15], ≤ 4.70. The pIC50 in the experiment with HLA-B*07:02 [16], with HLA-A*24:02, in the experiment with HLA-B*35:01, in the experiment with HLA-B*08:01, in the experiment with HLA-B*58:01 [17] and in the experiment with HLA-B*14:02 was ≤ 4.70 throughout. The pIC50 with HLA-B*18:01 [18] and with HLA-A*03:01 [19] was ≤ 4.70 each time.
As to LVTMGTGTFGR, the pIC50 was ≤ 4.70 in the experiment with HLA-B*44:03; 6.41 in the experiment with HLA-A*11:01 [11]; ≤ 4.70 with HLA-A*68:02; ≤ 4.70 in the experiment with HLA-A*29:02; ≤ 4.70 with HLA-B*37:01; ≤ 4.70 with HLA-B*53:01. Besides, the pIC50 with HLA-A*01:01 [12], with HLA-B*40:02, with HLA-A*25:01, with HLA-A*31:01 [13], with HLA-A*02:01 [14] and in the experiment with HLA-B*51:01 [15] was ≤ 4.70 throughout. Also, the negative-log IC50 (pIC50) with HLA-B*07:02 [16] is 4.86; in the experiment with HLA-A*24:02, ≤ 4.70; with HLA-B*35:01 it was 6.01; in the experiment with HLA-B*08:01 it was ≤ 4.70; in the experiment with HLA-B*58:01 [17], ≤ 4.70; with HLA-B*14:02, ≤ 4.70. Moreover, the pIC50 in the experiment with HLA-B*18:01 [18] and with HLA-A*03:01 [19] was ≤ 4.70 throughout.
WQLSGVVPL gave a pKd in the experiment with HLA-B*48:01 [20] of 7.52.

Source of the values: the Immune Epitope Database (IEDB).
